The values below come from article PMC8448731 (Nature Communications, 2021).

Positions count from the first letter of the chain named.

Sequences and labels used below:
B1: SR12_f3 (VHH)
VHH: QVQLVVSGGGLVQAGDSLRLSCAASGAIVHVFAMGWFRQAPGKEREFVASINLDNDATNYADSVKGRFTISRDDARNTVYLQMNSLKPEDTAVYYCNATIFMDSDLGDYWGRGTQVTVSS
B2: SR12_t6 (VHH)
VHH: B1 VHH with A57V, M102T, D105G
B3: SR6_f3 (VHH)
VHH: QVQLVVSGGGLVQAGDSLRLSCAASGDCHVLWRMGWFRQAPGKEREFVAAISLDGLFTNYADSVRGRFSISADSAENTVYLQMNSLKPEDTAVYYCAAMPFFDYWGQGTQVTVSS
B4: SR6_t5 (VHH)
VHH: B3 VHH with L56Q, E76K, M99L, F102L
B5: SR6_t9 (VHH)
VHH: B3 VHH with A23T, R45L, L56Q, T58A, M99L, F102L
B6: SR6_t6 (VHH)
VHH: B3 VHH with L56Q, M99L, F102L
B7: SR2_c3 (VHH)
VHH: EVQLVESGGGLVQAGDSLRLSCAASGAFSSNVFMGWFRQAPGKEREFVASITPHHAVTDYADSVRGRFSISADSAKNTVYLQMNSLKPEDTAVYYCAAAIYRNATVLDYWGQGTQVTVSS
B8: SR2_c4 (VHH)
VHH: B7 VHH with R102C
B9: SR2_t5 (VHH)
VHH: B7 VHH with E1Q, S74T
B10: SR1_t2 (VHH)
VHH: EVRLVESGGGLVLAGDSLRLSCAASGKTGRSVIMGWFRQAPDKEREFVATITRGDDTTNYADSVKGRFTISRDDARNTVYLQMNSLKPEDTAVYYCAAVYFVNDCIVDYWGQGTQVTVSS
B11: SR4_t13 (VHH)
VHH: KVQLVVTGRVLVQAGDSLRLSCVATGFQLSCYCVGWFRQAPGKELEFVASITQHAFRTYYADSVKGRFTISRDDAQNTVYLQMNSLEPEDTAVYYCAAAETPNILVHESYWGQGTQVTVSS
B12: SR4_c1 (VHH)
VHH: EVQLVESGGGLVQAGDSLRLSCAASGFQLSCYCMGWFRQAPGKEREFVASITQHAFRTYYADSVKGRFTISRDDARNTVYLQMNSLKPEDTAVYYCAAAETPNILVHENYWGQGTQVTVSS
B13: SR4_f3 (VHH)
VHH: B12 VHH with E6V, G9R, M34V, H107Y
B14: SR4_t9 (VHH)
VHH: B11 VHH with T7S, V23A, Q76R, E87K
B15: SR4_t4 (VHH)
VHH: B12 VHH with E6V, G9R, M34V
B16: SR4_t6 (VHH)
VHH: B12 VHH with E6V, G9R, G10V, M34V, N109S
B17: GST-tagged SR6v15 (VHH)
VHH: B3 VHH with Q1E, V6E, C28S, H29Y, V30I, L56Q, E76K, N77Y, M99L, F102L
notes: not shown: GST, C-terminal, kept

For one experiment, the target named is SARS-CoV-2 spike RBD with C-terminal 3xFlag tag and N-terminal signal peptide of the spike (RBD-3xFlag) (SARS-CoV-2, Wuhan-Hu-1 type (wild type), UniProt P0DTC2).
Experiment: not given
Conditions: not given
With B1, the binding result was “binds”.
Still for that read-out and setting: the entry for B2 is “binds”.
On the same count and under the same terms, the entry for B3 is “binds”.
As for B4, the binding result is “binds”.
The same measure, in the same setting: the result for B5 reads “binds”.
In the case of B6, the binding result is “binds”.
In the case of B7, the binding result is “binds”.
On the same count and under the same terms, the result for B8 reads “binds”; that for B9, “binds”.
B10: the binding result is listed as “binds”.
For B11, the binding result is listed as “binds”.
On to B12, for which the binding result is “binds”.
Still for that read-out and setting: the result for B13 reads “binds”.
Consider B14, for which the binding result is recorded as “binds”.
As for B15, the binding result is recorded as “binds”.
In the case of B16, the binding result is “binds”.

The target in the next experiment is recombinant RBD (ThermoFisher, RP-87678) (SARS-CoV-2, Wuhan-Hu-1 assumed, UniProt P0DTC2). The experiment is described as follows: BLI. As to conditions: one partner purified.
Consider B17, for which the dissociation constant (Kd) is 2.18 nM.

As a reminder, the Kd is the equilibrium constant for the complex coming apart.
